This series deals with EGFRvIII (on U87-EGFRvIII cells) del30-297 (UniProt P00533). The experiment in a line: cell ELISA. The following applies: apparent Kd, fixed U87-EGFRvIII cells, 3% BSA in PBST block (PBS, 0.01% Tween 20, pH 7.4), 37 C 40 min, SELEX binding buffer: PBS, 5 mM MgCl2, glucose, yeast tRNA, salmon …. (An ELISA detects its analyte on a solid surface through an enzyme-linked reagent.)

For “ATCCAGAGTGACGCAGCATGAATCTTTTCTTTTGGTTTTGATATTTATAGTTGGTGAATGGACACGGTGGCTTAGT [U8]”, the Kd was determined as 4.35 nM.
For “ATCCAGAGTGACGCAGCATTTTGACGCTTTATCCTTTTCTTATGGCGGGATAGTTTCGTGGACACGGTGGCTTAGT [U2]” the value was 3.37 nM.

Source of the values: PMC3948368.
